Test system: Saccharomyces cerevisiae
Assay: transcriptional activation domain activity (GFP:mCherry ratio, weighted mean of sorted bins, harmonized to initial dataset scale) (arbitrary fluorescence ratio units); higher = stronger transcriptional activation
Settings: beta-estradiol 1 µM; induction time 4 h
How it was run: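 Barcoded tiles were sequenced after cells were sorted into 8 bins by GFP:mCherry ratio. Before sorting, cultures had been diluted 1:5 into SC with 1 uM beta-estradiol and held for 4 hours at 30 °C. The tiles were fused to an estradiol-inducible synthetic transcription factor and integrated at URA3 in yeast diploids carrying a GFP reporter. Activation activity is the read-weighted mean of bin median fluorescence, averaged over barcodes and linearly mapped onto the initial dataset scale, and tiles under 50 reads were left out.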

## PARGNKDVFFIMFHPSEEFLFNILSLWLRACNPNCRIFHSHEAGSWKQYQKET
  transcriptional activation domain activity: 45000

## MDAAVATEPIPKKRGRPRKVASEETPAVEPKGVRKASTKTAAAVKKEEAPKKV
  transcriptional activation domain activity: 37900

## KDEVMKIMPVQKQTRAGQRTRFKAFVVIGDSDGHVGLGVKCAKEVATAIRGAI
  transcriptional activation domain activity: 61200

## AITRLSLVIDALKEGMRYDCDHVLETYQYDVLLVAGYFYLAAILDKSGVDPTA
  transcriptional activation domain activity: 52000

## HNILHLFSICVFRYHMLYYDEVRYIWKRWRRRSTYWFFLNRYFNFFGNGAITV
  transcriptional activation domain activity: 64600

## LGLTNLQLGDEMIGLGAVILIYVIARLILILLPLVALRSLPSGVFVDVNWSRY
  transcriptional activation domain activity: 57800

## LSTVLKWSYEEIQVHIMTMRKEILNRRNHAYYDMYVLLLQLLLHIADSLTRGS
  transcriptional activation domain activity: 45500

## EEREEEKEEEKEEKEQEKKKEEETRRRIRSRKRRGARRRETMRKTSQRGNRKK
  transcriptional activation domain activity: 25200

## VPSSIPRARRLQTAMVAIWSTSIVTTFALTLFLCSFPPLWPFMLMYVIWLNYI
  transcriptional activation domain activity: 49000

## MLTEFCFNMLGRHDGKGLISNAVLNAWLKQLSDYFRARFTIWCRINILMDLYR
  transcriptional activation domain activity: 42100

## GRADARRGRRRRGGGGEGRRGTGDGGRGKTRGGEAGKERRTENRGARGGATRG
  transcriptional activation domain activity: 39600

## LQCEGFTLRVPFVVDDTFYALMRCFDFFTIDEDPELWRLWCSLLRYALRLQNG
  transcriptional activation domain activity: 40200

## IQVRLTAFDCLFVLKGLTESTLTQYFLSVIRDDPCVYVSHYVARAMLAWLGLA
  transcriptional activation domain activity: 55600

## SFLIFLLCEYARHVLVTSITVPHYLEYADVWRGNGQMDFRLLIRMFSTDTRRK
  transcriptional activation domain activity: 45000

## LQHLVVPILFLGPLYATYLNQTLPFQAFWDYDEYVLRKYFSFMGLRTYIIGPI
  transcriptional activation domain activity: 52300

## YEIKRRLQVCRAVLDEHINPYEFKHHTVYREALLKLMYFHCVISLRLVLSWTD
  transcriptional activation domain activity: 65300

## EEEGNSRRKRRHRDDRDSRERDERGRDRDRERRRHRRDSSRSRDASEEERGHK
  transcriptional activation domain activity: 13400

## KKEAAAAKKEPAKRKKTKADEEDKESAEGTESDEESKPKKKKAAPKKKGAATA
  transcriptional activation domain activity: 20600

## PLPSPPSLPLPSPPSHSLLPLFLPFLPSLCSSLSILFPPLLLSHCPCFSFFLS
  transcriptional activation domain activity: 63500

## DRRYRISRGGSRMNQVVENTVSRWVGMLPTWRCGLLLHAFVHLKKVYWCPFLR
  transcriptional activation domain activity: 72700

## DRMRENGLLSLSDLREYFVCWWRFEKMYRTLIIAETWMDLQAYKVKTLAWLHG
  transcriptional activation domain activity: 63200

## FISKLCILGGSQICNHFWGGIEIILESFYFILTTLINFWDFINLPNAFLWGLF
  transcriptional activation domain activity: 72800

## SVCHRAGEGDEEVEDEEEGEESDEEEEDGDDEKTADGGRAASARKGRDAGAGA
  transcriptional activation domain activity: 13000

## FLHLLKIIRPSFAFYFTILFWWCIQVQLLLQIIINRIRVIVPNRKLSRHIMWG
  transcriptional activation domain activity: 66300

## VALATWVIVIAVLLPTIFLIGFIESYCWFRRMMLGRSALRLGTICWCVMSLWF
  transcriptional activation domain activity: 65100

## EEEAVVSAATDEAVKEEGRQVDAGSADAGGEAAAPRKKIRKRSKAKPTPEQKL
  transcriptional activation domain activity: 21200

## FVHVYLRKRISGFPPGYRVAGELIIWCGAVVALSFESILATDASGSGYRLSDP
  transcriptional activation domain activity: 58200

## RVVVVTDAFQKMDHFYWSLQAWLMYRFDALSACSTFAMTLLALYDDLSPGLTA
  transcriptional activation domain activity: 83700

## GEDEEEGEEEEEEDDDDEEEKDHDEDEGDQGDGASDDADAAAQERPGKPRPGR
  transcriptional activation domain activity: 8020

## FSWFALANIWLMFSIIIDLLPGQNIIIFGTADIICGTHWMNLVFKWIYLAFLV
  transcriptional activation domain activity: 36900

## EGGEGGSGSGSGGNAKTRRKGRRRGSSRDGAGAGAGAGAGEGAGGEVGRSKKK
  transcriptional activation domain activity: 7430

## PTPSGDPEEEEEGEGEEGGEERGGGGGGGGGKKKNHAGAIAGGVVGGVAVIGL
  transcriptional activation domain activity: 24600

## DFLLSLHGIRTVYLFMFVINSFLHPLRTLIHLWCLIFISVYQHRLFFFFFFFF
  transcriptional activation domain activity: 61200

## GMHSGDGEFVPFYAPVVVEGPVEAWLLEIEATMRVTLRKLLLGCILALKKAKK
  transcriptional activation domain activity: 61300

## HLLDTNCLLLILKMFGLQEVTNSVVSKVDSPENNFFRYCLMNYSKNPQPMRPE
  transcriptional activation domain activity: 39100

## YPFLLKLCFDIFLLPLHFFYFPFFFSLITHYIFFFTGTLSHLYICFILLCLFL
  transcriptional activation domain activity: 36400

## ALLSSLHFGLGSHFRDIILKHPQWLIPLMRWLYIQNATYFNCSGIVKMSLLFQ
  transcriptional activation domain activity: 46400

## FLYTLHIYDGQEGYHFLFNSFGNGSEWLQWSDGEQWALLYAQNYTMIIWVWYM
  transcriptional activation domain activity: 15000

## VANHQIYADWLYVWCLTYFMGMHKDVLIVLKRSLKWVPVLGWGMQIFRFIFLA
  transcriptional activation domain activity: 70100

## KEAKSKSKAAHDNDAKRKTTATKPKRTSARNGKAPVKSKPKKGGGNAEPSAKK
  transcriptional activation domain activity: 10300

## FKSQLFCFYNLRLFVSCQPKHLNDLVDLLKKYHGSHVYQFVFTLSAFLERVAQ
  transcriptional activation domain activity: 48800

## EAPAPVEEQPVQEPEPEAIPEPEPVPQETPQAYEEPPAPEPKPAPTPKAQPVQ
  transcriptional activation domain activity: 23300

## MKRVLHVRNVARVNSGGKVRSVSALVVVGNGQGAAGYGEGRAVDAAAAVQKAT
  transcriptional activation domain activity: 54500

## PCPETSTPPPPPPKPTTAYPPPKSSEAPPPPPPKPTTAYPPPPKSSEAPPPPP
  transcriptional activation domain activity: 47900

## FRLVPFVLWPPFTRRQTDELYLFSWSFLALIWFFIWSLVQFPIVLTVLLSLVF
  transcriptional activation domain activity: 52000

## YKTCILPGADPGVNYIVGDDYLAVNYGYYVWQRWINFIAVCLFFLFFTVLTCL
  transcriptional activation domain activity: 55900

## TATVQYSERRRGTVTAFNDEKGYGFAADSDPASLGNKEVLVHHKKIKSTARHK
  transcriptional activation domain activity: 24200

## MPCLCHFWMTCLCHFRMPLFFYFQMPCLCHFWMTCLCHFLMPCLFYFWMPFLC
  transcriptional activation domain activity: 43200

## LYFMPVRWYTYHKIGFHYFLADLCYFVNFLMVLCIWFFPNSKRLFISTFCLAF
  transcriptional activation domain activity: 72000

## GLRDNVIENRQGKKGAGKAAAAGGAGAAAANTNAATGGKAAKAAKAAAAGGSG
  transcriptional activation domain activity: 48900

## PGEVSEAEANGEVKAEGEVVATDDAAKPKKKKSKKSRKARAAKAATEDEEGAA
  transcriptional activation domain activity: < 6570

## MTLLVGYLGVFFLLFSSPSLLEFFFFVTYRVFVVFFFSSSFFFLGYPVFFFFF
  transcriptional activation domain activity: 36600

## PVLEQKRCIRAMEEMIILCKEYIRIARPQISACLISALSFDELRATAFSCWVA
  transcriptional activation domain activity: 48700

## TIHLVNTIQVIVLILDRFLYGIIPLFEIHTCAFFPLLISFWHVSYLLYYVIMF
  transcriptional activation domain activity: 37200

## MNQTSCFFPPFFLFSFFFFLFFFPFPHSSSLPSFFFSFPSISPLFTSFSVSSL
  transcriptional activation domain activity: 35200

## RKLRTKIIELSGSVEAACALGVADGIVDLVESGETMRAAGLKAIDTVVDTQAV
  transcriptional activation domain activity: 29100

## SFMKVLFLLTRYIPFLSTPLDLYYLLAPNMTFRTCLVTFMISRWLLCAGIVCA
  transcriptional activation domain activity: 56200

## DGNNSKPLSPGWTDQTAYNAFGITTGMFNTTTMDDVYNYLFDDEDTPPNPKKE
  transcriptional activation domain activity: 61500

## KPHHKWIVPTPFSSHAFHPVDGYAQSVPYHLFVFIFPMQRHLYLFLFVAVNFW
  transcriptional activation domain activity: 44100

## GGGGAGEEDAKGKARADEDVRESSRAKSTSKRKTSAAASGSESDSASSSSSYS
  transcriptional activation domain activity: 14900

## MNQTSRFFSPFFLFLFLLFLSFLSPPPFLPSSLPFLLFLPFLPLSLSLLSLIF
  transcriptional activation domain activity: 15400

## RGKSSSSSIGGAQEGAVRADETSHHHHHHHHQQQQQQQQQKQQQRHVQEQADI
  transcriptional activation domain activity: 30600

## ADSARGGDADAKYRDRDRQRQTETETDRQTKTERDTQRQRQRHRHTHTHSPVQ
  transcriptional activation domain activity: 37200

## ASEAPKEEPKTESAPEPKQESAPESKKEAPAPAASKPEPPKQVEKKKESSSAP
  transcriptional activation domain activity: 34300

## IYIFPINTTIASFALGYLSIFYLIYAILTVLPTFFFDCPYGTPFSALMWRISH
  transcriptional activation domain activity: 62300

## ALLNGQCGGANYTGPTVCVCGLNIIQGFMRIRKCSSLYMIVLALKLIFITFFS
  transcriptional activation domain activity: 90200

## MILKHIHSCHALASFVVSLHSFPLLFSCPSRGLCGIVALETVFLFFFFPLFQL
  transcriptional activation domain activity: 75600

## SSTDPTVEPDAPGGSEAEEPAKSETKESPAKKKVVEEEEEEEQKKAEPNGSSS
  transcriptional activation domain activity: 30700

## SLPYFLYICDWYLCNSFLYLSSILSFHCVYLCCFASIITLWFPAFFLTVILSI
  transcriptional activation domain activity: 51500

## NVSDAPRIEPLPSLNDDDIEKILQPNDIFTTDRTDASTTSSTAIEDIINPSLD
  transcriptional activation domain activity: 61300

## VAALLATSLCMIYPLWSIFSIVQVIYMFANICLLVWVIPKGLHFACYYLLGVS
  transcriptional activation domain activity: 37400

## MILTLFALCFFFLDTSSCFLHFISIVSFLISLILCLFFFFFLVASEPFHFIPS
  transcriptional activation domain activity: 57900

## MSADYAIGQFRYLAKLLLVHGHWNTYRIGVLHQVFFYKNLIWTGCLLIFQIFT
  transcriptional activation domain activity: 45800

## MIWRYVWYTLVLGCLFCCRPNYSLLVPNTIDLHRLWLGFRFQILFVAWGVYLV
  transcriptional activation domain activity: 58900

## TWPINYRIRYILPLLVIAGYTKETLRLIQCIHQTRSSFFTPHFFRRMLRVLLR
  transcriptional activation domain activity: 52500

## MFIFLFFIHLLSHLCFILILILLFSILLFYVPVICLSTFFILFYHHHLLCTHQ
  transcriptional activation domain activity: 32200

## LFLSLSSACPSFFPLLPFPFLLAFLITFLAPFPSFLSLLVPHSVPIPLSLPTS
  transcriptional activation domain activity: 49800

## MDATAKKAVEQPKRRACDECRGRKLACSKEVDGCARCKREGIKCVYSAQKRMG
  transcriptional activation domain activity: 10500

## SVEDAADTTVSTDLKAADDATTEAAADDDAPRKKHKKSKSKKDKHRRAAADAE
  transcriptional activation domain activity: 11600

## VQVVGVLCVGWSLKVWTMHLLGDGGVAVLVKGRTRTVPMAWEEWGAVVEVMRG
  transcriptional activation domain activity: 40300

## MGGGVYVCRSGAVYLFWVLLFYGLMFLTVDVITYLLAYLTLPMYLFFLLLVSF
  transcriptional activation domain activity: 39200

## GFVLPLFFNSLCPMIPIGFSFVFHFFSHFSFLPIVCFPFPFHLFDTLGSFFFR
  transcriptional activation domain activity: 33100

## TVDSLLTFVPFFLLTLLFLLISLFLFILFFLIFFFLFIPFSSFLFIYFSLSFH
  transcriptional activation domain activity: 32200
